Experimental data reported in article PMC9191654.
Changes are numbered by the printed parent chain. In names and notes the source's numbering stands.

Legend:
[1] = biological target: anti-OX40 antibody 1A7 with the Fc hexamer variant E345R/E430G/S440Y (RGY); assay: SEC
[2] = biological target: anti-OX40 antibody 1A7 with the κ3-11(49–61) light chain graft and the Fc hexamer variant E345R/E430G/S440Y (RGY); assay: SEC

B1: anti-OX40 antibody 1A7 with the Fc hexamer variant E345R/E430G/S440Y (RGY) (antibody, V domains shown)
VH: EVQLVQSGAEVKKPGASVKVSCKASGYTFTDSYMSWVRQAPGQGLEWIGDMYPDNGDSSYNQKFRERVTITRDTSTSTAYLELSSLRSEDTAVYYCVLAPRWYFSVWGQGTLVTVSS
VL: DIQMTQSPSSLSASVGDRVTITCRASQDISNYLNWYQQKPGKAPKLLIYYTSRLRSGVPSRFSGSGSGTDFTLTISSLQPEDFATYYCQQGHTLPPTFGQGTKVEIK
Work on B1 yielded a stoichiometry N [1] of 6.

B2: anti-OX40 antibody 1A7 with the κ3-11(49–61) light chain graft and the Fc hexamer variant E345R/E430G/S440Y (RGY) (antibody, V domains shown)
VH: B1 VH
VL: B1 VL with Y50D, T51A, R53N, L54R, R55A, S56T, V58I, S60A
For B2, the stoichiometry N [2] was 6.
